Assay results from patent US20220025045A1 (INNATE PHARMA, published 2022).

B1: 27C10 (antibody, human IgG1, V domains shown)
VH: EVQLQESGPGLVKPSQSLSLTCSVTGYSITSGYYWNWIRQFPENKLEWMGYIRYDGSNNYNPSLNNRISITRDASKNQFFLKLNSVTTEDTATYYCARGWLLWFYAVDYWGQGTSVTVSS
VL: DVVMTQTPLSLPVSLGDQASISCRSSQSIVHTNGNTYLEWYLQKSGQSPKLLIYKVSNRLSGVPDRFSGSGSGTDFTLKISRVEAEDLGIYYCFQGSHVPWTFGGGTKLEIK
B2: GHI/75 (antibody, V domains shown)
VH: EVILVESGGALVRPGGSLKLSCAASGFTFSSNAMSWVRQTPEKRLEWVATISNGGTFTYYPDSVKGRFTISRDNAKNTLYLQMNSLRSEDTAMYYCARHGDGNYGDPLDYWGQGTTLTVSS
VL: DIQMTQSPASQSASLGESVTITCLASQTIGTWLAWYQQKPGKSPQLLIYAATNLADGVPSRFSGSGSGTKFSFKISSLQAEDFVSYYCQQLYSTPFTFGSGTKLEIK
B3: 26D8 (antibody, human IgG1, V domains shown)
VH: QVQLQQSGAELVKPGASVKLSCKASGYTFTEHTIHWIKQRSGQGLEWIGWFYPGSGSMKYNEKFKDKATLTADKSSSTVYMELTRLTSEDSAVYFCARHTNWDFDYWGQGTTLTVSS
VL: DIVLTQSPASLAVSLGQRATISCKASQSVDYGGDSYMNWYQQKPGQPPKLLIYAASNLESGIPARFSGSGSGTDLTLNIHPVEEDDAAMYYCQQSNEEPWTFGGGTKLEIK
B4: 18E1 (antibody, human IgG1, V domains shown)
VH: QVQLQQSGAELVKPGASVRLSCKASGYTFTAHTIHWVKQRSGQGLEWIGWLYPGSGSIKYNEKFKDKATLTADKSSSTVYMELSRLTSEDSAVYFCARHTNWDFDYWGQGTTLTVSS
VL: NIVLTQSPASLAVSLGQRATISCKASQSVDYGGASYMNWYQQKPGQPPKLLIYAASNLESGIPARFSGSGSGTDLTLNIHPVEEEDAAMYYCQQSNEEPWTFGGGTKLEIK
B5: 27H5 (antibody, human IgG1, V domains shown)
VH: QVQLKESGPGLVAPSQSLSITCTVSGFSLTSYGVSWVRQPPGKGLEWLGVIWGDGNTNYHSALISRLSISKDNSKSQVFLKLNSLQTDDTATYYCARTNWDGWFAYWGQGTLVTVSA
VL: DIVMTQSHKFMSTSVGDRVSITCKASQDVGTAVAWYQQKPGQSPKLLIYWASTRHTGVPDRFTGSGSGTDFTLTISNVQSEDLADYFCQQYRSYPLGTFGGGTKLEIK
B6: 3H5 (antibody, human IgG1, V domains shown)
VH: QVQLKESGPGLVAPSQSLSITCTVSGFSLTSYGVSWVRQPPGKGLEWLGVIWGDGSTNYHSALISRLSISKDNSKSQVFLKLNSLQTDDTATYYCAKPRWDDYAMDYWGQGTSVTVSS
VL: DIQMTQTTSSLSASLGDRVTISCRASQDISNYLNWYQQKPDGTVKLLIYYTSRLHSGVPSRFSGSGSGTDYSLTISNLEQEDIATYFCQQGNTLWTFGGGTKLEIK

What was measured:
Mutant D4-1B = target: T1, Mutant D4-1B; assay: flow cytometry titration on cells transfected with ILT2 mutant 4-1b
T1 construct: D4 domain point mutant; also called ILT2 mutant 4-1b

ILT2 mutant 4-2 = target: T2, ILT2 mutant 4-2 (human, UniProt Q8NHL6 24-650); assay: flow cytometry titration on cells transfected with ILT2 mutant 4-2
T2 construct: Transfected in HEK293T cells
T2 sequence (Q8NHL6 other isoform, or with tags, fused parts or gaps mutant): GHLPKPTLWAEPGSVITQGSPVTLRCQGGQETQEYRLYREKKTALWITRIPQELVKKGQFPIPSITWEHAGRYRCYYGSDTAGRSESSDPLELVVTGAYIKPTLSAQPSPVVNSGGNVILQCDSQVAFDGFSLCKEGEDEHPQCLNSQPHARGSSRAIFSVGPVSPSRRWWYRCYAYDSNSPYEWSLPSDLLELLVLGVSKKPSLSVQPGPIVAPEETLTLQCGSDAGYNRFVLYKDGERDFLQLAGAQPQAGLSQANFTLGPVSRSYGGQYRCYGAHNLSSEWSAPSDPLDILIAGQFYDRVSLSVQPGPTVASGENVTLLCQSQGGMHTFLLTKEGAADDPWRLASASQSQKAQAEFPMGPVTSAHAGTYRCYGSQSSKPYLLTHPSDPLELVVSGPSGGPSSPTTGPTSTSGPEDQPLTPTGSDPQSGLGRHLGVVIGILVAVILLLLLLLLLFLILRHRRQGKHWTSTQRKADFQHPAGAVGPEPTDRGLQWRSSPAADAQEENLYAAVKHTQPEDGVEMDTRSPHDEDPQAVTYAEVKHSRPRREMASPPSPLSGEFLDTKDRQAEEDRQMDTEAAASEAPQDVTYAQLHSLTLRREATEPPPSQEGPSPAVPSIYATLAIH

Mutant D4-4 = target: T3, Mutant D4-4; assay: flow cytometry titration on cells transfected with ILT2 mutant 4-4
T3 construct: D4 domain point mutant; also called ILT2 mutant 4-4

[1] = target: T4, recombinant human ILT2 protein (analyte in SPR and Octet) (human, UniProt Q8NHL6 24-458, limits assumed); assay: BLI (Octet RED96), mAb captured on AMC biosensor, 1:1 model
T4 construct: also called Human ILT2 recombinant proteins
T4 sequence (Q8NHL6 24-458 limits assumed): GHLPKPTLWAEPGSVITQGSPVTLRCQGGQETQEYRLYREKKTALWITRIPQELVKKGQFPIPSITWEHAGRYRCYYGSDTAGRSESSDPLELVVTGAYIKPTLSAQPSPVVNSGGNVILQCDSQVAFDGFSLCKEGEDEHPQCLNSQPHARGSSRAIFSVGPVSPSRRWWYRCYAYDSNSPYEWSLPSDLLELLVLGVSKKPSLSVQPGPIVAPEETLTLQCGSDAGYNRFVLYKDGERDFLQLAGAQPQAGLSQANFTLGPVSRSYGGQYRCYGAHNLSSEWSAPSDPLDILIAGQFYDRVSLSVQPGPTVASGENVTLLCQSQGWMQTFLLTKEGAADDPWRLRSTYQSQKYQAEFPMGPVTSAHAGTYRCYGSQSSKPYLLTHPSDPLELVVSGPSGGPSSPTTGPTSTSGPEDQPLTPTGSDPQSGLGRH

[2] = target: T5, human ILT-2 (LILRB1), complete form expressed at the cell surface (human, UniProt Q8NHL6 24-650); assay: flow cytometry, CHO-ILT2 cells
T5 construct: also called CHO-ILT2; CHO ILT2 cell line
T5 sequence (Q8NHL6 24-650): as the sequence (Q8NHL6 other isoform, or with tags, fused parts or gaps mutant) above, with G328W, H330Q, A347R, A349T, S350Y, A355Y counted along it

[3] = target: T4, recombinant human ILT2 protein (analyte …); assay: SPR, mAb captured on Protein-A, monovalent, two state reaction
Procedure: Measurements were performed on a Biacore T200 apparatus (Biacore GE Healthcare) at 25° C. In all Biacore experiments HBS-EP+ (Biacore GE Healthcare) and NaOH 10 mM served as running buffer and regeneration buffer respectively. Sensorgrams were analyzed with Biacore T100 Evaluation software. Protein-A was purchased from (GE Healthcare). Human ILT2 recombinant proteins were cloned, produced and purified at Innate Pharma. Protein-A proteins were immobilized covalently to carboxyl groups in the dextran layer on a Sensor Chip CMS. The chip surface was activated with EDC/NHS (N-ethyl-N′-(3-dimethylaminopropyl) carbodiimidehydrochloride and N-hydroxysuccinimide (Biacore GE Healthcare)). Protein-A was diluted to 10 μg/ml in coupling buffer (10 mM acetate, pH 5.6) and injected until the appropriate immobilization level was reached (i.e. 600 RU). Deactivation of the remaining activated groups was performed using 100 mM ethanolamine pH 8 (Biacore GE Healthcare). […] For blank subtraction, cycles were performed again replacing ILT2 proteins with running buffer. The monovalent affinity analysis was conducted following a regular Capture-Kinetic protocol as recommended by the manufacturer (Biacore GE Healthcare kinetic wizard). […]

| Binder | EC50 (read off the curve) (Mutant D4-1B) [µg/mL] | EC50 (read off the curve) (Mutant D4-4) [µg/mL] | koff [3] [s⁻¹] | also measured |
| --- | --- | --- | --- | --- |
| B1 | ~0.5 | ~0.5 | – | EC50 (read off the curve) (ILT2 mutant 4-2): ~0.6 µg/mL |
| B2 | – | – | – | Kd [1]: 28.1 nM; koff [1]: 0.00038 s⁻¹; kon [1]: 13000 M⁻¹ s⁻¹; EC50 [2]: 5.39 µg/mL |
| B3 | ~0.2 | – | – | – |
| B4 | ~0.3 | ~0.3 | – | – |
| B5 | – | – | 0.1 | – |
| B6 | – | – | 0.008 | – |
